Paper PMC4452343, “Monitoring β-arrestin recruitment via β-lactamase enzyme fragment complementation: purification of peptide E as a low-affinity ligand for mammalian bombesin receptors” (PLoS ONE, 2015)

Tests used:
neuromedin B receptor = neuromedin B receptor (human, UniProt P28336 1-390); assay: cell-based or functional assay
[1] = target: T1, human bombesin receptor subtype 3 (human, UniProt P32247 1-399); assay: cell-based or functional assay
T1 sequence (looked up): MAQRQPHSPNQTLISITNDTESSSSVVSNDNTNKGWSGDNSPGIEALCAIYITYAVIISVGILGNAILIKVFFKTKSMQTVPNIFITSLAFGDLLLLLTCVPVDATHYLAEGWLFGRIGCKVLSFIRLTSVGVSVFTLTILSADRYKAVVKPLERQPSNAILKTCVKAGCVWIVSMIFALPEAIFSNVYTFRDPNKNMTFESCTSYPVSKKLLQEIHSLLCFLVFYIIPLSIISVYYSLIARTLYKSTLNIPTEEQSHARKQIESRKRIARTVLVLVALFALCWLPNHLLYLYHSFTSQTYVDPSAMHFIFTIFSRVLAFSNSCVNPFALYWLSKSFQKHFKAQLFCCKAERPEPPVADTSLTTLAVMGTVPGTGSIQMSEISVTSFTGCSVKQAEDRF

[2] = target: gastrin-releasing peptide receptor (human, UniProt P30550 1-384); assay: cell-based or functional assay
[3] = target: T1, human bombesin receptor subtype 3; assay: radioligand binding; competition; 5 μg membrane fraction of CHO-hBRS3 cells with 0.1 nM radioligand and various concentrations of competitor, 2 h at room temperature, 50mM Tris-HCl (pH7.5), 5mM MgCl2; bound ligand separated on a GF/C filter; conditions: one partner purified

Chain of neuromedin B receptor (P28336 whole entry): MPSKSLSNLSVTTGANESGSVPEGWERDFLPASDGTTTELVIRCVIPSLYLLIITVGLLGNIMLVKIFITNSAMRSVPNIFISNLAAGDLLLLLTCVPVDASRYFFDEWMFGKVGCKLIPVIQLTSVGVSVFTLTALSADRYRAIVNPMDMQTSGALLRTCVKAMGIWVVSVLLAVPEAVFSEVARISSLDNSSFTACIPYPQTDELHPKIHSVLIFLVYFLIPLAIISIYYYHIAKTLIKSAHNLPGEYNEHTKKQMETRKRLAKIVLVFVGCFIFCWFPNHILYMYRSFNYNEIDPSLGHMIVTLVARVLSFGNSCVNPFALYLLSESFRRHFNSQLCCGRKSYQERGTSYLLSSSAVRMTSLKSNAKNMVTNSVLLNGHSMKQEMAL
Chain of gastrin-releasing peptide receptor (P30550 whole entry): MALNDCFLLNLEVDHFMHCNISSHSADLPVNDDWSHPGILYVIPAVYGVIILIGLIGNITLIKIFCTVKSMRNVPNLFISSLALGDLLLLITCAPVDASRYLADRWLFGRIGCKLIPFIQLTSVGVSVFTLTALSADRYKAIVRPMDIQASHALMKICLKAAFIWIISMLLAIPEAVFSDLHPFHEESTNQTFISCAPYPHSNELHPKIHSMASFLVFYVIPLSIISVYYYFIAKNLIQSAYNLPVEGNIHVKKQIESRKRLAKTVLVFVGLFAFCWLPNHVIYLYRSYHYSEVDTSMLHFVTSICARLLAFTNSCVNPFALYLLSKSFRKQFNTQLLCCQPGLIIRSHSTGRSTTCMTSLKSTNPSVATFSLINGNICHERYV

B1: peptide E (peptide)
chain: YGGFMRRVGRPEWWMDYQKRYGGFL
notes: peptide E, a partially processed product of the opioid peptide precursor proenkephalin A; 25 residues; also called P2; synthetic peptide E; source: synthetic peptide (chemically synthesized)
In the case of B1, the “EC50 of NFAT-luciferase reporter activation in CHO cells expressing hNMBR” value (neuromedin B receptor) is reported as 1100 nM, the “EC50 of NFAT-luciferase reporter activation in CHO cells expressing hBRS3” value [1] is reported as 500 nM and the “EC50 of NFAT-luciferase reporter activation in CHO cells expressing hGRPR” value [2] is reported as 3500 nM. The IC50 [3] was 361 nM.
